Test results reported in PMC5797668.

Target: HA-M2R-RLuc8 (M2 muscarinic receptor) (UniProt P08172)
Assay: FRET or BRET

Chain of UniProt P08172 (P08172 whole entry): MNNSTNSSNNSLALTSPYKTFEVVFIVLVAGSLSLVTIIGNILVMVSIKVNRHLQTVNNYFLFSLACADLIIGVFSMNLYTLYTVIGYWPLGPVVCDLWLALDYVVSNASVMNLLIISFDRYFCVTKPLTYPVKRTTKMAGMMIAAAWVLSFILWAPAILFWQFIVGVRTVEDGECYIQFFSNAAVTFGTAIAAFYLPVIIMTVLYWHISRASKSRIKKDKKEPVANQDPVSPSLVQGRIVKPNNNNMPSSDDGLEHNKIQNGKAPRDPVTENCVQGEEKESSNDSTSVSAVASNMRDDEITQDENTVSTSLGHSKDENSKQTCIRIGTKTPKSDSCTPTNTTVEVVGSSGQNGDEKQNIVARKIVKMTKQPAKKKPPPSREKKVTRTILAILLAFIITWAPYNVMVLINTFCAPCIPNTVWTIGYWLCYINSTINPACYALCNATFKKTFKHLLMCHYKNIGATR

- fold increase of basal net BRET (against the A87V base mutant): > 3 fold
Substance: Venus-arrestin-3-Lys139Ile (on the Ala87Val base mutant) (natural protein)
